Measured values published in the supplement of paper PMC10567573.
± gives the standard deviation.

Experiment: protein stability index of a GFP-peptide fusion (GPS, HEK-293T) (PSI 1-6); higher = more stable
[1] = treatment: DMSO, c terminus: a fixed tail appended
[2] = treatment: MLN4924 1 uM, 8 h, c terminus: a fixed tail appended
[3] = treatment: DMSO, c terminus: native
[4] = treatment: MLN4924 1 uM, 8 h, c terminus: native
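Note: 24-mer peptide tiles fused after GFP, lentivirally expressed, FACS-sorted into six equal bins by GFP/DsRed ratio, decoded by Illumina sequencing, PSI is the read-weighted mean bin number.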

Sequence	protein stability index [1]	protein stability index [2]	protein stability index [3]	protein stability index [4]
ALTYACAGGYVDVVKVLLESGASI [ANKRD17]	2.64 ± 0.33	2.79 ± 0.48		
KDESCYDNAEAAFSDDEEDLNSKG [INTS3]	5.6 ± 0.39	5.5 ± 0.18		
DAVQTSLMDEGASSEKKRQSSADG [RBBP5]	5.49 ± 0.26	5.48 ± 0.19		
PGFDSSVYSDLCEAAEAVRPEERK [ADAMTSL2]	5.42 ± 0.19	5.83 ± 0.18		
REERLRRENEELSARYLSQCQEAE [FBF1]	5.26 ± 0.29	4.97 ± 0.54		
RTKQVLHTFKTRFTQPLLPAFTVW [FSD1]	2.53 ± 0.32	2.44 ± 0.46		
YGRSWESYSSCGDFHYCDREHVCR [RBMY1A1]	2.65 ± 0.72	2.66 ± 0.35		
SLADGGSASPIKDQPVMAVKTGED [FANCE]	5.46 ± 0.23	5.6 ± 0.16		
LALSPDLSLSNATVLTRSLFLGRI [FANCE]	2.35 ± 0.36	2.24 ± 0.3		
RDYKIQASRTWCFYNTEDIKDWED [PTGFR]	3.28 ± 0.36	3.68 ± 0.49		
LQSEPHRAGVQWKFAGSFYFAITV [KCNK9]	3.47 ± 0.43	2.82 ± 0.81		
DRECKLPPPSAPASEYCPGKLSWG [WDR88]	3.79 ± 0.13	3.96 ± 0.36		
GQRQLMVPARDGTSCKLTDLRGVC [ADAMTSL2]	3.08 ± 0.28	3.01 ± 0.16		
RRYVARLEMRRRCTWSIFQSIEYA [PPEF2]	1.86 ± 0.94	2.26 ± 0.14		
LLQCLEDLDANLRKLNSRLFVIRG [CRY1]	2.67 ± 0.25	2.68 ± 0.29		
STFASLIGPFGGFFASGFKRAFKI [CDS2]	2.21 ± 0.44	2.37 ± 0.38		
KYESVLQLGRALTAHLYSLLQTQH [ARFIP2]	3.09 ± 0.24	2.85 ± 0.092		
LFENSLCRLTHIPAYKVSGDKNEE [ZER1]	4.05 ± 0.17	4.04 ± 0.12		
LLDQIREGAQLKKVEQNSRPVSCS [WASL]	4.852 ± 0.026	4.63 ± 0.24		
CDKKAMVWDMRSGQCVQAFETHES [GNB5]	3.67 ± 0.27	3.73 ± 0.29		
YSLRILIGDPPHHDHHDEFCLMP [BEX5]			2.62 ± 0.4	2.03 ± 0.35
MEKFREDEGFIKEEERPLPEKEYQ [KCNA1]	5.38 ± 0.32	5.53 ± 0.31		
KHGIEYQSKPLLSAFADIIHSLKE [FADS1]	2.51 ± 0.44	2.81 ± 0.49		

Sequence	protein stability index [1]	protein stability index [2]	protein stability index [3]	protein stability index [4]
KDEEGRLRDPATITTLRVPVLRPM [PPP2R2B]	3.78 ± 0.23	4.04 ± 0.26		
IPKLTPGDNPYMYPEQSKGFHKAG [SPATS1]	3.97 ± 0.28	3.84 ± 0.25		
NKYDNTCLMIAAYKGHTDVVRYLL [FEM1B]	2.44 ± 0.66	2.31 ± 0.29		
WPPSFLSEFRALQFSLMLCAFVGA [SPNS1]	3.23 ± 0.53	2.85 ± 0.64		
ATIVFATDFYLIFNDVAKFLKQGD [CMTM3]	2.9 ± 0.91	2.77 ± 0.43		
DLQITDQVALLRLTWSELFVLNAA [NR2F2]	2.92 ± 0.58	2.88 ± 0.65		
LQRHADEFLLDLGHHERSIMTDLY [FUT8]	2.55 ± 0.21	2.69 ± 0.26		
LEAVAGALVVALWGPLQDSLEHTL [TSPAN10]	3.12 ± 0.95	3.57 ± 0.42		
KNALEKYGPLKPLPQTPHLEEDLK [MYBL2]	5.16 ± 0.38	5.11 ± 0.2		
LFGEKLSGTDAEETILNAFKMLDP [MYL5]	3.56 ± 0.28	3.31 ± 0.35		
RDAAIKKLATEAGVEVIVRISHTL [CRY1]	2.83 ± 0.92	2.62 ± 0.68		
STWALYGRAVDQDKVLRFAQQIRL [MYORG]	2.29 ± 0.23	2.25 ± 0.33		
DTALLNLLPMLDALRFTADVRSVL [CTDNEP1]	2.78 ± 0.48	2.58 ± 0.42		
PKQLRLINQPLPDLKNVKSKIGST [MAP2]	3.9 ± 0.1	3.88 ± 0.19		
CNQCGKCFIQSSHLIRHQITHTRE [ZNF8]	4.28 ± 0.19	4.47 ± 0.21		
ICPSTFACAQLATGAACRLVEAVL [HDAC6]	2.17 ± 0.32	2.14 ± 0.049		
FGGTGIPFGESNGNGVHVCNVKYK [KLHDC10]	2.52 ± 0.35	3.06 ± 0.51		
RFLRAYREGALRAALQRSLAAALA [TRADD]	2.27 ± 0.062	2.32 ± 0.18		
EMSKDALPEKACQLDSRYWRITNA [FBXO3]	3.55 ± 0.24	3.5 ± 0.16		
VGTMVGADILAGREDNSGSDVLIG [SLC35F2]	4.79 ± 0.26	4.55 ± 0.22		
DGSYALNGEYTLMPSPTDVVLPGA [ADAMTS4]	4.4 ± 0.2	3.87 ± 0.36		
SRKSSIPNNKEIPSHHPTDPVELR [PTPRD]	4.83 ± 0.1	5.04 ± 0.35		
RLHLAFKRQVPTEQAQAYAERLGV [RAB40B]	3.13 ± 0.2	3.1 ± 0.26		

Sequence	protein stability index [1]	protein stability index [2]	protein stability index [3]	protein stability index [4]
LCEYFSQHLGEYENVLAALEGLNL [NECAB1]	2.61 ± 0.35	2.63 ± 0.22		
SGRDRVGRQERGLPPSMERGYPPP [RBMX]	4 ± 0.38	3.94 ± 0.19		
ENYHKLRRSSSKCIHDHHCGSQLS [NETO1]	3.1 ± 0.27	3.26 ± 0.4		
GRVSKQASQPVKKQQENATSCSLE [WDR41]	5.22 ± 0.1	5.29 ± 0.16		
LHHKRLAKECMLQEENKSLREENK [CBY2]	4.87 ± 0.39	4.89 ± 0.21		
AEITQIQSHISDMSVILSMDNNRN [KRT71]	3.73 ± 0.16	3.7 ± 0.14		
VISCEFAHNSNWYITFQSDTDAQQ [LARP4]	2.47 ± 0.23	2.56 ± 0.19		
GLTLGRSFSNYRPFEPQALGLSPS [SEPHS2]	2.78 ± 0.36	2.81 ± 0.49		
PHFQPDASLLQPVTPLGTSRWRKI [NCF4]	3.58 ± 0.3	3.73 ± 0.17		
PWGVQGGQESEVPYKREEEALEER [PKD2L1]	5.16 ± 0.37	5.56 ± 0.19		
GKETMCTVDGLHFNSTYNARVKAF [TRIM9]	3.1 ± 0.37	3.08 ± 0.23		
DLFDLCDRTFTLKTVLMIAIQLLS [CSNK1G1]	2.6 ± 0.43	2.33 ± 0.42		
IKSVKESLQESVEDSLATVKVVLI [IQUB]	2.27 ± 0.66	2.44 ± 0.32		
LSPVLESPRDLQFSEIRETSAKVN [TNXB]	4.9 ± 0.12	5.02 ± 0.34		
PAPALCCAPYDSRLLGSARPELGA [IRX6]	3.08 ± 0.19	3.1 ± 0.25		
AENLDVKINENVAAGMRFPLPEAI [PCDHGA10]	4.29 ± 0.2	4.28 ± 0.15		
IGNPPVGPIGGMMPPQPGIPQQQG [ZNF207]	4.62 ± 0.28	4.53 ± 0.21		
TNSDTPTSFNHMDSDKLSGLWSRI [TOR1AIP2]	3.21 ± 0.21	3.1 ± 0.39		
ETQNAFLNERKQASAIKKEELVAR [CHGB]	3.57 ± 0.12	3.77 ± 0.24		
RVPLGRLELLEEVLALGLRTDVGI [RSAD1]	2.1 ± 0.44	2.15 ± 0.31		
LATRSNEKQELQELNDRFANFIEK [PRPH]	4.43 ± 0.25	4.37 ± 0.095		
YTSELYPTVIRNVGLGTCSMFSRV [SLC22A15]	2.13 ± 0.82	1.77 ± 0.12		
RRQTSMTDFYHSKRRLIFSKRKP [CDKN1A]			3.33 ± 0.28	3.71 ± 0.53

Sequence	protein stability index [1]	protein stability index [2]	protein stability index [3]	protein stability index [4]
FRRGSGSACSLLCCCGRDPSEEHS [MCOLN1]	3.58 ± 0.35	3.33 ± 0.24		
REIQPTAILSLDQIKAIRGSNEYT [SPRY1]	3.99 ± 0.29	4.02 ± 0.14		
LTGVLCSYPNPNEDKCPGNYTNPL [TMEM192]	3.26 ± 0.19	3.36 ± 0.25		
GHSLKNLEHRLNEMERTQAQLRDA [RASAL3]	4.51 ± 0.24	4.58 ± 0.22		
IITVTLNMEKYNFLGISIVGQSNE [DVL3]	3.15 ± 0.69	3.04 ± 0.4		
LLQTEPQNNQAKELERLIDKAMKK [FIS1]	3.99 ± 0.19	4.27 ± 0.17		
AVDCKWYIRAPPRSKIYLRFLDYE [NETO1]	2.43 ± 0.24	2.19 ± 0.38		
MMHGLKPLSLVKRTDLKDLIIFDK [CEP70]	2.37 ± 0.12	2.92 ± 0.47		
VLIRYPNSLDTTSWAWRGPGVLKV [LPCAT4]	2.77 ± 0.23	2.69 ± 0.8		
ILNLTQALKDNKSPLHLVQMPPVI [PI4K2A]	2.54 ± 0.27	2.35 ± 0.23		
RLENRYEALAKQVASEMRFVQDLV [DAPK3]	2.5 ± 0.16	2.45 ± 0.25		
ERCLHMFLQEEAIDRNYVPGKSLA [SNX12]	2.97 ± 0.31	3.05 ± 0.26		
IVLLEELLPKGSKEEQRDYVFYLA [FIS1]	2.33 ± 0.34	2.16 ± 0.44		
SAFGNVKLVVHDCPVWDIFDSDWY [RHOBTB3]	2.17 ± 0.33	2.2 ± 0.12		
SSFSDPFFVVETLCIIWFSFELLV [KCNA3]	3.06 ± 0.48	3.2 ± 0.32		
VLAGAAEEGFMTAELAGVIKRLWK [GNAI1]	2.38 ± 0.34	2.45 ± 0.057		
FRKFIPKCSKIVIDFDSINSRPSQ [DCTD]	2.4 ± 0.27	2.15 ± 0.33		
MDSFKVVLEGPAPWGFRLQGGKDF [PDLIM7]	2.1 ± 0.24	2.52 ± 0.23		
MVKPLLHMLLNTTLNIKETDSKEL [ZBED1]	2.13 ± 0.58	2.24 ± 0.38		
SCPGSSYRTVVRPTYKVMYKIVTA [EMID1]	2.37 ± 0.53	2.22 ± 0.26		
